Laboratory results from patent US20240279281A1, “Peptide Inhibitors of Interleukin-23 Receptor” (Janssen Pharmaceutica NV, priority 2023, published 2024).
Values belong to the binder of their own block, whether it stands above or below them. Positions of bridges follow the written chain, without caps; N, C: chain ends. Non-standard residues stand in square brackets, D forms with d. No end group written: not given here. 2Nal(6-OH) = N[C@@H](Cc1ccc2cc(O)ccc2c1)C(=O)O; Trp(7-Me) = Cc1cccc2c(C[C@H](N)C(=O)O)c[nH]c12; d(hLys(Me3)) = C[N+](C)(C)CCCCC[C@@H](N)C(=O)O; AEF = NCCOc1ccc(C[C@H](N)C(=O)O)cc1; 3Pal = N[C@@H](Cc1cccnc1)C(=O)O; Lipidated = not defined here; NMeK = CN[C@@H](CCCCN)C(=O)O; Pen = CC(C)(S)[C@H](N)C(=O)O; lipid = not defined here; Thp = NC1(C(=O)O)CCOCC1; Sar = CNCC(=O)O

Molecular target: T1, interleukin-23 receptor (IL-23R), Q5VWK5
T1 chain: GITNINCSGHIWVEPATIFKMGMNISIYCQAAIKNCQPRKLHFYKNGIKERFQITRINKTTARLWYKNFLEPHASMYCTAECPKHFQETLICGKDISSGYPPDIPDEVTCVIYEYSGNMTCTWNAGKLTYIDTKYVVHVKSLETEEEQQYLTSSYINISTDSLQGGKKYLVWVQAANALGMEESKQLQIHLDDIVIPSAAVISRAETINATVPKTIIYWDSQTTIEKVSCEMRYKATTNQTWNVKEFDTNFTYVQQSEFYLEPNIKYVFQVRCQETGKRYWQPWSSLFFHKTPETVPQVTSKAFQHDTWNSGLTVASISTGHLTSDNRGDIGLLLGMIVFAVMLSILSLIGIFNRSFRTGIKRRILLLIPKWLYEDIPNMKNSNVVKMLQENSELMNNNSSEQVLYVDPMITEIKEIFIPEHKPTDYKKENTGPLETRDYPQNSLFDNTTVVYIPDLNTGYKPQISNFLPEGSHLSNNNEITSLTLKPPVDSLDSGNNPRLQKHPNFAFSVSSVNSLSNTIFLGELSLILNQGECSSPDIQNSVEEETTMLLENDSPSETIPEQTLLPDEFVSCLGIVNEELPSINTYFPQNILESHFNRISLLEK
Experiment: cell-based or functional assay

B1: SEQ ID NO: 191 (peptide)
peptide: R[Pen]NT[Trp(7-Me)]K(Ac)[Pen][2‑amino‑3‑(4-(2-aminoethoxy)phenyl)propanoic acid][2‑amino‑3‑(6-hydroxynaphthalen-2-yl)propanoic acid][Thp]EN[3Pal][Sar]K(Lipidated)
modifications: disulfide 2-7 (inferred); ends not checked; also: K15: lipidated lysine, lipid not given here
PBMC pSTAT3 IC50: < 1 nM

B4: SEQ ID NO: 186 (peptide)
peptide: [Pen]NT[Trp(7-Me)]K(Ac)[Pen][2‑amino‑3‑(4-(2-aminoethoxy)phenyl)propanoic acid][2‑amino‑3‑(6-hydroxynaphthalen-2-yl)propanoic acid][Thp]K(Lipidated)N[3Pal][Sar]
modifications: disulfide 1-6 (inferred); ends not checked; also: K10 lipidated lysine, lipid not given here
PBMC pSTAT3 IC50: < 1 nM

B5: SEQ ID NO: 184 (peptide)
peptide: [d(hLys(Me3))][Pen]NT[Trp(7-Me)]K(Ac)[Pen][2‑amino‑3‑(4-(2-aminoethoxy)phenyl)propanoic acid][2‑amino‑3‑(6-hydroxynaphthalen-2-yl)propanoic acid][Thp]K(Lipidated)N[3Pal][Sar]
modifications: disulfide 2-7 (inferred); ends not checked; also: K11 lipidated lysine, lipid not given here
PBMC pSTAT3 IC50: < 1 nM

B6: SEQ ID NO: 185 (peptide)
peptide: [Pen]NT[Trp(7-Me)]K(Ac)[Pen][2‑amino‑3‑(4-(2-aminoethoxy)phenyl)propanoic acid][2‑amino‑3‑(6-hydroxynaphthalen-2-yl)propanoic acid][Thp]K(Lipidated)N[3Pal][Sar]
modifications: disulfide 1-6 (inferred); ends not checked; also: K10 lipidated lysine, lipid not given here
PBMC pSTAT3 IC50: < 1 nM

B10: SEQ ID NO: 198 (peptide)
peptide: [Pen]NT[Trp(7-Me)]K(Ac)[Pen][5‑(4-(2-amino-2-carboxyethyl)phenoxy)‑N,N,N‑trimethylpentan‑1‑aminium][2‑amino‑3‑(6-hydroxynaphthalen-2-yl)propanoic acid][Thp]K(Lipidated)N[3Pal][Sar]
modifications: disulfide 1-6 (inferred); ends not checked; also: K10: lipidated lysine, lipid not given here
PBMC pSTAT3 IC50: < 1 nM

B11: SEQ ID NO: 192 (peptide)
peptide: [Pen]ET[Trp(7-Me)]K(Lipidated)[Pen][2‑amino‑3‑(4-(2-aminoethoxy)phenyl)propanoic acid][2‑amino‑3‑(6-hydroxynaphthalen-2-yl)propanoic acid][Thp]K(Ac)N[3Pal][Sar]
modifications: disulfide 1-6 (inferred); ends not checked; also: K5: lipidated lysine, lipid not given here
PBMC pSTAT3 IC50: < 1 nM

B12: SEQ ID NO: 204 (peptide)
peptide: [(R)‑3‑carboxy‑2‑(4-(((R)-5-carboxy-5-hydrazineylpentyl)amino)-4-oxobutanamido)‑N,N,N‑trimethylpropan‑1‑aminium][Pen]NT[Trp(7-Me)]K(Ac)[Pen][2‑amino‑3‑(4-(2-aminoethoxy)phenyl)propanoic acid][2‑amino‑3‑(6-hydroxynaphthalen-2-yl)propanoic acid][Thp]EN[3Pal][NMeK]
modifications: disulfide 2-7 (inferred); not fully specified (residue 14); ends not checked; also: X14: lipidated N-methyl-lysine, lipid not given here
PBMC pSTAT3 IC50: < 1 nM

B14: SEQ ID NO: 190 (peptide)
peptide: R[Pen]NT[Trp(7-Me)]K(Ac)[Pen][2‑amino‑3‑(4-(2-aminoethoxy)phenyl)propanoic acid][2‑amino‑3‑(6-hydroxynaphthalen-2-yl)propanoic acid][Thp]EN[3Pal][NMeK]
modifications: disulfide 2-7 (inferred); not fully specified (residue 14); ends not checked; also: X14 lipidated N-methyl-lysine, lipid not given here
PBMC pSTAT3 IC50: < 1 nM

B17: SEQ ID NO: 193 (peptide)
peptide: [Pen]ET[Trp(7-Me)]K(Ac)[Pen][2‑amino‑3‑(4-(2-aminoethoxy)phenyl)propanoic acid][2‑amino‑3‑(6-hydroxynaphthalen-2-yl)propanoic acid][Thp]K(Lipidated)N[3Pal][Sar]
modifications: disulfide 1-6 (inferred); ends not checked; also: K10: lipidated lysine, lipid not given here
PBMC pSTAT3 IC50: < 1 nM

Other lines, results leading:

PBMC pSTAT3 IC50: > 1 nM
B2: SEQ ID NO: 218 (peptide)
peptide: R[Pen]NT[Trp(7-Me)]K(Ac)[Pen][2‑amino‑3‑(4-(2-aminoethoxy)phenyl)propanoic acid][2‑amino‑3‑(6-hydroxynaphthalen-2-yl)propanoic acid][Thp]EN[3Pal][Sar]K(lipid)
modifications: disulfide 2-7 (inferred); ends not checked; also: Lys15 lipidated, lipid not given here

PBMC pSTAT3 IC50: < 0.1 nM
B3: SEQ ID NO: 217 (peptide)
peptide: R[Pen]NT[Trp(7-Me)]K(Ac)[Pen][2‑amino‑3‑(4-(2-aminoethoxy)phenyl)propanoic acid][2‑amino‑3‑(6-hydroxynaphthalen-2-yl)propanoic acid][Thp]EN[3Pal][Sar]
modifications: disulfide 2-7 (inferred); ends not checked

PBMC pSTAT3 IC50: < 1 nM
B7: SEQ ID NO: 220 (peptide)
peptide: R[Pen]NT[Trp(7-Me)]K(Ac)[Pen][2‑amino‑3‑(4-(2-aminoethoxy)phenyl)propanoic acid][2‑amino‑3‑(6-hydroxynaphthalen-2-yl)propanoic acid][Thp]K(Ac)N[3Pal][Sar]
modifications: disulfide 2-7 (inferred); ends not checked

PBMC pSTAT3 IC50: > 1 nM
B8: SEQ ID NO: 221 (peptide)
peptide: R[Pen]NT[Trp(7-Me)]K(Ac)[Pen][2‑amino‑3‑(4-(2-aminoethoxy)phenyl)propanoic acid][2‑amino‑3‑(6-hydroxynaphthalen-2-yl)propanoic acid][Thp]K(Ac)N[3Pal][Sar]K(lipid)
modifications: disulfide 2-7 (inferred); ends not checked; also: Lys15 lipidated, lipid not given here

PBMC pSTAT3 IC50: < 1 nM
B9: SEQ ID NO: 229 (peptide)
peptide: K(lipid)[Pen]NT[Trp(7-Me)]K(Ac)[Pen][AEF][2Nal(6-OH)][Thp]EN[3Pal][Sar]
modifications: disulfide 2-7 (inferred); ends not checked; also: Lys1 lipidated, lipid not given here

PBMC pSTAT3 IC50: < 1 nM
B13: SEQ ID NO: 214 (peptide)
peptide: [Pen]ET[Trp(7-Me)]K(lipid)[Pen][2‑amino‑3‑(4-(2-aminoethoxy)phenyl)propanoic acid][2‑amino‑3‑(6-hydroxynaphthalen-2-yl)propanoic acid][Thp]K(Ac)N[3Pal][Sar]
modifications: disulfide 1-6 (inferred); ends not checked; also: K5: lipidated lysine, lipid not given here

PBMC pSTAT3 IC50: < 0.1 nM
B15: SEQ ID NO: 215 (peptide)
peptide: [Pen]ET[Trp(7-Me)]K(Ac)[Pen][2‑amino‑3‑(4-(2-aminoethoxy)phenyl)propanoic acid][2‑amino‑3‑(6-hydroxynaphthalen-2-yl)propanoic acid][Thp]K(lipid)N[3Pal][Sar]
modifications: disulfide 1-6 (inferred); ends not checked; also: K10: lipidated lysine, lipid not given here

PBMC pSTAT3 IC50: < 1 nM
B16: SEQ ID NO: 210 (peptide)
peptide: [(R)‑3‑carboxy‑2‑(4-(((R)-5-carboxy-5-hydrazineylpentyl)amino)-4-oxobutanamido)‑N,N,N‑trimethylpropan‑1‑aminium][Pen]NT[Trp(7-Me)]K(Ac)[Pen][2‑amino‑3‑(4-(2-aminoethoxy)phenyl)propanoic acid][2‑amino‑3‑(6-hydroxynaphthalen-2-yl)propanoic acid][Thp]EN[3Pal][NMeK]
modifications: disulfide 2-7 (inferred); not fully specified (residue 14); ends not checked; also: X14: lipidated N-methyl-lysine, lipid not given here

PBMC pSTAT3 IC50: < 0.1 nM
B18: SEQ ID NO: 216 (peptide)
peptide: K(lipid)[Pen]NT[Trp(7-Me)]K(Ac)[Pen][2‑amino‑3‑(4-(2-aminoethoxy)phenyl)propanoic acid][2‑amino‑3‑(6-hydroxynaphthalen-2-yl)propanoic acid][Thp]K(Ac)N[3Pal][Sar]
modifications: disulfide 2-7 (inferred); ends not checked; also: Lys1 lipidated, lipid not given here
